System: MS2 coat protein
Experiment: apparent KD of MS2 coat protein; higher = weaker reporter binding
Conditions: Eterna round: R107
Protocol: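 RNA-MaP round R107: designed RNA switches with theophylline, tryptophan, arginine or FMN aptamers are transcribed on-chip within common flanks. They are titrated with SNAP-549-labelled MS2 coat protein in RNA-MaP buffer (100 mM Tris pH 7.5, 80 mM KCl, 4 mM MgCl2), without ligand or with the indicated ligand. Median apparent KD per design.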

[1] = input ligand: theophylline 20 uM
[2] = input ligand: theophylline 2 mM
[3] = input ligand: tryptophan 2.4 mM

Sequence: AAAAGAGGUGGAAGGAGCGGGAGACAUGAGGAUCACCCAUGUGAUGUGACGAAAGGGUCAGCCCAGGUAGGUCGCCAUGUCGAAA [yuyymullin]
- apparent KD of MS2 coat protein (input ligand: arginine 13.2 mM): 0.0546 µM
- apparent KD of MS2 coat protein (input ligand: none): 0.0629 µM
- apparent KD of MS2 coat protein [1]: 0.0762 µM
- apparent KD of MS2 coat protein [2]: 0.134 µM
- apparent KD of MS2 coat protein [3]: 0.0273 µM

Sequence: AAAAUCCUACCUGAGGAUCACCCGGGUGAAGGAGCGCCCGAAAGGGCAGGUAGGUCGCACCUGAGGAUCACCCUGGUAACCUAAA [ArgEX 12 #DoubleMS2 #OpenEnded #AlternativeMS2]
- apparent KD of MS2 coat protein (input ligand: arginine 13.2 mM): 0.0417 µM
- apparent KD of MS2 coat protein (input ligand: none): 0.179 µM
- apparent KD of MS2 coat protein [1]: 0.187 µM
- apparent KD of MS2 coat protein [2]: 0.454 µM
- apparent KD of MS2 coat protein [3]: 0.159 µM

Sequence: AAAAUCCUACCUGAGGAUCACCCUGGUGAAGGAGCGCCCGAAAGGGCAGGUAGGUCGCACCUGAGGAUCACCCGGGUAACCUAAA [ArgEX 14 #DoubleMS2 #OpenEnded #AlternativeMS2]
- apparent KD of MS2 coat protein (input ligand: arginine 13.2 mM): 0.0787 µM
- apparent KD of MS2 coat protein (input ligand: none): 0.17 µM
- apparent KD of MS2 coat protein [1]: 0.139 µM
- apparent KD of MS2 coat protein [2]: 0.2 µM
- apparent KD of MS2 coat protein [3]: 0.151 µM

Sequence: AAACGUUGCUCAGAUACCAGACAUGAGGAUCACCCAUGUACCAAGGUAACCGAAAGGCAUGUCCCUUGGCAGCUGAGCAACGAAA [MAT - Exclusion Theophlline B - Mod of Eli - D16]
- apparent KD of MS2 coat protein (input ligand: arginine 13.2 mM): 0.0124 µM
- apparent KD of MS2 coat protein [1]: 0.0214 µM
- apparent KD of MS2 coat protein [3]: 0.0125 µM

Sequence: AAACGUUGCUGCGAUACCAGACAUGAGGAUCACCCAUGUACCAAGGUACGAAAAUAACAUGUCCCUUGGCAGCGCAGCAACGAAA [MAT - Exclusion Theophlline B - Mod of Eli - D6]
- apparent KD of MS2 coat protein (input ligand: arginine 13.2 mM): 0.0157 µM
- apparent KD of MS2 coat protein [1]: 0.0297 µM
- apparent KD of MS2 coat protein [3]: 0.0145 µM

Sequence: AAAGCUACGUAAAAUAAAACUACAUGUGAAGGAGCGCGCGAAAGCGCAGGUAGGUCGCACAUGAGGAUCACCCAUGUCGUAGCAA [MAT - Exclusion Arginine A - Mod of Eli - D5]
- apparent KD of MS2 coat protein (input ligand: arginine 13.2 mM): 0.0439 µM
- apparent KD of MS2 coat protein (input ligand: none): 0.0634 µM
- apparent KD of MS2 coat protein [1]: 0.101 µM
- apparent KD of MS2 coat protein [2]: 0.0782 µM
- apparent KD of MS2 coat protein [3]: 0.0522 µM

Sequence: AAAUAAAUAACUGAUACCAGUCGGACAACAUGAGGAUCACCCAUGUUCACCCAUGUUGAGGACCCUUGGCAGCAGAAAUAUAAAA [test (nupak+vienna]
- apparent KD of MS2 coat protein (input ligand: arginine 13.2 mM): 0.0415 µM
- apparent KD of MS2 coat protein [1]: 0.116 µM
- apparent KD of MS2 coat protein [3]: 0.243 µM

Sequence: AAAUAAAUAACUGAUACCAGUGUACUGACAUGAGGAUCACCCAUGUUGGGUUUGGUUGUACACCCUUGGCAGCAGAAAUAUAAAA [test (nupak]
- apparent KD of MS2 coat protein (input ligand: arginine 13.2 mM): 0.0154 µM
- apparent KD of MS2 coat protein [1]: 0.0206 µM
- apparent KD of MS2 coat protein [3]: 0.0151 µM

Sequence: AAAUAAAUACAUGAGGAUCACCCAUGUGAAGGAGCGGCCGUUAGGCCAGGUAGGUCGCGCAUGAAUAACUCCGUGCAAAAGCACA [MAT - Exclusion Arginine A - Mod of Eli - D18]
- apparent KD of MS2 coat protein (input ligand: arginine 13.2 mM): 0.00962 µM
- apparent KD of MS2 coat protein (input ligand: none): 0.0112 µM
- apparent KD of MS2 coat protein [1]: 0.0169 µM
- apparent KD of MS2 coat protein [2]: 0.0133 µM
- apparent KD of MS2 coat protein [3]: 0.0127 µM

Sequence: AAAUGAGGAUCACCCAUGUAACAACGGGAAGGAGCGCCAAACAAGGCAGGUAGGUCGCCCACAUGAGGAUCACCCAUGUGUUGGG [Exclusion Arginine A GF 28]
- apparent KD of MS2 coat protein (input ligand: arginine 13.2 mM): 0.089 µM
- apparent KD of MS2 coat protein (input ligand: none): 0.137 µM
- apparent KD of MS2 coat protein [1]: 0.105 µM
- apparent KD of MS2 coat protein [2]: 0.166 µM
- apparent KD of MS2 coat protein [3]: 0.177 µM

Sequence: AAAUGUGUAAAAGCUUUAACACCCUGAGAAGGAGCGCAAUAAAUUGCAGGUAGGUCGCUCAGACAUGAGGAUCACCCAUGUAACC [Atrabeor]
- apparent KD of MS2 coat protein (input ligand: arginine 13.2 mM): 0.0457 µM
- apparent KD of MS2 coat protein (input ligand: none): 0.0396 µM
- apparent KD of MS2 coat protein [1]: 0.0569 µM
- apparent KD of MS2 coat protein [2]: 0.0597 µM
- apparent KD of MS2 coat protein [3]: 0.04 µM

Sequence: AACAGUUGGUCGGCCGCCACUACAUGAGGAUCACCCAUGUAGCGCGUUCUGCUCCAGGGCUCAUCUAGGACCGGGACACGAGUGU [Raa]
- apparent KD of MS2 coat protein (input ligand: arginine 13.2 mM): 0.0122 µM
- apparent KD of MS2 coat protein [1]: 0.0214 µM
- apparent KD of MS2 coat protein [2]: 0.0145 µM

Sequence: AACAUGAGGAUCACCCAUGUCCCAUGUGAACGAGGACCGGUACGGCCGCCACUCGAAUAAGGCGGCACAUGAGGAUCACCCACAU [AstrosSSTry#1]
- apparent KD of MS2 coat protein (input ligand: arginine 13.2 mM): 0.101 µM
- apparent KD of MS2 coat protein [1]: 0.223 µM
- apparent KD of MS2 coat protein [2]: 0.206 µM

Sequence: AACAUGAGGAUCACCCAUGUCCCAUGUGAACGAGGACCGGUACGGCCGCCACUCGACUGAGGCGGCACAUGAGGAUCACCCACAU [whbob_SS_trypto A_2s12]
- apparent KD of MS2 coat protein (input ligand: arginine 13.2 mM): 0.151 µM
- apparent KD of MS2 coat protein [1]: 0.207 µM
- apparent KD of MS2 coat protein [2]: 0.269 µM

Sequence: AACAUGAGGAUCACCCAUGUUGUAAGGGAAGGAGCGCCUAAUCAGGCAGGUAGGUCGCCCAACAUGAGGAUCACCCAUGUUGUAU [Exclusion Arginine A 2]
- apparent KD of MS2 coat protein (input ligand: arginine 13.2 mM): 0.0389 µM
- apparent KD of MS2 coat protein (input ligand: none): 0.0753 µM
- apparent KD of MS2 coat protein [1]: 0.0892 µM
- apparent KD of MS2 coat protein [2]: 0.0669 µM
- apparent KD of MS2 coat protein [3]: 0.0765 µM

Sequence: AACAUGAGGAUCUUCCUUAAGUGAACUGAAGGAGCGCCAGAUAUGGCAGGUAGGUCGCAGCGAACAUGAGGAUCACCCAUGUUAA [Arg A Ex t3]
- apparent KD of MS2 coat protein (input ligand: arginine 13.2 mM): 0.0381 µM
- apparent KD of MS2 coat protein (input ligand: none): 0.0294 µM
- apparent KD of MS2 coat protein [1]: 0.0331 µM
- apparent KD of MS2 coat protein [2]: 0.056 µM
- apparent KD of MS2 coat protein [3]: 0.0537 µM

Sequence: AACCGAGGCUAUCCACAAAGAAAAUGUGAUACCAGAAUAAUUUUAUUCCCUUGGCAGCAUGACAUGAGGAUCACCCAUGUGUCUU [SSTheo A #5]
- apparent KD of MS2 coat protein (input ligand: arginine 13.2 mM): 0.0297 µM
- apparent KD of MS2 coat protein [1]: 0.0398 µM
- apparent KD of MS2 coat protein [3]: 0.0328 µM

Sequence: AACGUAUACAGAAGGAGCGUGAUUUAUAUUACUCAUUCAUAUACAUGAGGAUCACCCAUGUCACAGGUAGGUCGCUGUAUUCGUA [JR_ExcArginiB_Sub021]
- apparent KD of MS2 coat protein (input ligand: arginine 13.2 mM): 0.076 µM
- apparent KD of MS2 coat protein (input ligand: none): 0.153 µM
- apparent KD of MS2 coat protein [1]: 0.165 µM
- apparent KD of MS2 coat protein [2]: 0.157 µM
- apparent KD of MS2 coat protein [3]: 0.108 µM

Source: the supplement of paper PMC9170038
